The labels stand for the following.
B1: chimeric rabbit/human Fab ERR2-302 (Fab, V domains shown)
VH: QKQLVESGGGLVKPGGSLTLTCTVSGFSLSSYAIGWVRQAPGNGLEWIGIINSYGSTYYASWAKSRSTITRNTNLNTVTLKMTSLTAADTATYFCARSPYGYVSAWGYHRLDLWGQGTLVTISS
VL: SYELTQLPSVSVSLGQTARITCGGASIGSKVVHWYQQKPGLAPGLLIYDDDERPSGVPDRFSGSNSGDTATLTISGAQAGDEAEYYCQLWDGSDVVFGGGTQLTVTG
B2: chimeric rabbit/human Fab ERR2-316 (Fab, V domains shown)
VH: QKQLVESGGRLVTPGGSLTLTCTVSGFSLSKYGVSWVRQAPGSGLEYIGTIGGSGTSYYASWAKSRSTITRNTNLNTVTLKMTSLTAADTATYFCARYFGWNTGFDIWGPGTLVTISS
VL: DPVMTQTPSSVSEPVGGTVTIKCQASQSISNALAWYQQKPGQPPKRLIYKASTPASGVPSRFKGSRSGTEYTLTISGVQREDAATYYCLGFSVVSNDGWAFGAGTNVEIK
B3: chimeric rabbit/human Fab XBR2-TOP9 (Fab, V domains shown)
VH: QSVEESRGRLVTPGTPLTLICTVSGIDLSSYNIQWVRQAPGKGLEYIGYINTDGSAYYASWAKGRFTISKTSTTVDLKITSPTTEDTATYFCARGGYASGFNLWGPGTLVTISS
VL: DVVMTQTPSSTSAAVGGTVTIKCQASQNIGPWLSWYQQKPGQPPKQLIYAASTLASGVPSRFKGSGSGTDYTLTISGVQREDAATYYCLGWHSWSDDGWAFGAGTNVEIK
B4: chimeric rabbit/human Fab XBR2-416 (Fab, V domains shown)
VH: QEQLEESGGRLVTPGTPLTLTCTVSGFSLSSYWMSWVRQAPGKGLEWIGTITPGGNTDYATWAKARFTVSKTSTTVDLKITSPTTEDTATYFCARGIGGAADLWGPGTLVTISS
VL: AQVLTQTPSSTSAAVGGTVTIKCQASQSISSSDLSWYQQKPGQPPKLLIYATSYLASGVPSRFKGSGSGTEYTLTISGVQREDAATYYCLGGYPNTSYRSAFGGGTKVEIK
B5: chimeric rabbit/human Fab XBR2-327 (Fab, V domains shown)
VH: QEQLKESGGGLFKPTDTLTLTCTVSGFSLSSGAISWVRQAPGNGLEYIGFVNSLGNTYYANWAKSRSAITRNTNENTVTLKMTSLAAADTATYFCAKDYGNWAFDPWGPGTLVTVSS
VL: DPVLTQTPSSVSAAVGGTVAINCQASQSISSYLSWYQQKPGQPPKLLIYGASKLASGVPSRFSGSGSGTEYTLTISGVQREDAATYYCLGGYASASYRTAFGGGTKLEIK
B6: chimeric rabbit/human Fab ERR2-317 (Fab, V domains shown)
VH: QSLEESGGRLVTPGTPLTLTCTASGFSLSSYDMIWVRQAPGKGLEYIGIINAGGNTYYASWAKGRFTISRTSTTVDLKMTSPTTEDTATYFCARGSSWTGDIWGPGTLVTVSS
VL: B5 VL with V11T, A20T, N22K, L46Q, G50A, K53T, S63K, R98Q, L107V
B7: chimeric rabbit/human Fab XBR2-433 (Fab, V domains shown)
VH: QSVKESEGGLFKPTDTLTLTCTVSGFSLSTYGVSWVRQAPGNGLEWIGAIGSSGSANYASWAKDRSTITRNTNLNTVTLKMTSLTAADTATYFCARDGYYSSGWGPYFNIWGPGTLVTISS
VL: SFVLTQPASVQVNLGQTVSLTCTADTLSRSYASWYQQKPGQAPVLLIYRDTSRPSGVPDRFSGSSSGNTATLTISGAQAGDEADYYCATSGGSGSNPQYVFGGGTQLTVTG
B8: chimeric rabbit/human Fab ERR2-TOP35 (Fab, V domains shown)
VH: B7 VH with T14M, S29N, I50V, S55A, A56T, D64S, L74E, N109S, I119V
VL: SFVLTQPASVQVNLGQTVSLTCTAETLRSSYASWYQQKPGQAPVLLIYRDTSRPSGVPDRFSGSSSGNTATLTISGAQAGDEADYYCATSDGSGSRYYVFGGGTQLTVTG
B9: chimeric rabbit/human Fab ERR2-TOP2 (Fab, V domains shown)
VH: QSLEESGGRLVTPGTPLTLTCTVSGFSLSSYAISWVRQAPGKGLEWIGTIGTRGDTAYANWAKGRFTISKTSTTVTLKMTSPTTEDTATYFCARELVAGGGSDLWGPGTLVTVSS
VL: DVVMTQTPSSVSAVVGGTVTIKCQASQSITSWLSWYQQKPGQPPKLLIYGASHLASGVPSRFKGSGYGTEFTLTISGIQREDAATYYCLGGYLSASYQTAFGGGTKVEIK
B10: chimeric rabbit/human Fab ERR2-308 (Fab, V domains shown)
VH: QEQLEESGGRLVTPGTPLTLTCAVSGFSLSNYAMGWVRQAPGEGLEYIGWISAGGGAYYASWVNGRFTISKTSSTVDLKMTSLTAADTATYFCARGASNGCDLWGPGTLVTVSS
VL: DPMLTQTPSSVSAVVGGTVTIKCQASQSITSWLSWYQQKPGQPPKLLIYGASHLASGVPSRFKGSGYGTEFTLTISGIQREDAATYYCLGGYSNSDIVFGGGTELEIL
B11: chimeric rabbit/human Fab XBR2-TOP72 (Fab, V domains shown)
VH: QEQLEESGGRLVTPGTPLTLTCTVSGIDLSSNAMSWVRQAPGKGLEYVGFINGGGGVHYASWARGRFTISKTSTTVDLKITSPTTEDTATYFCARAGTTYYTSFNLWGPGTLVTISS
VL: QFVLTQSPSASAALGSSAKLTCTLSSAHKTYTIAWYQQQQGEAPRLLMMLRTDGSYTKGTGVPDRFSGSSSGADRYLIISSVQADDAAGYYCGADYSGGYVFGGGTQLTVTG

Changes are numbered by the printed parent chain.

The target of the assay is hFc-hROR2-T245 (recombinant human ROR2 extracellular domain fused to human Fc) (human) (UniProt Q01974). In words: SPR (Biacore X100), hFc-hROR2 captured by anti-human Fc on CM5, Fab as analyte, 1:1 Langmuir model.
Sequence of hFc-hROR2-T245 (recombinant human ROR2 extracellular domain fused to human Fc) (human) (Q01974 55-394 limits assumed, form in doubt): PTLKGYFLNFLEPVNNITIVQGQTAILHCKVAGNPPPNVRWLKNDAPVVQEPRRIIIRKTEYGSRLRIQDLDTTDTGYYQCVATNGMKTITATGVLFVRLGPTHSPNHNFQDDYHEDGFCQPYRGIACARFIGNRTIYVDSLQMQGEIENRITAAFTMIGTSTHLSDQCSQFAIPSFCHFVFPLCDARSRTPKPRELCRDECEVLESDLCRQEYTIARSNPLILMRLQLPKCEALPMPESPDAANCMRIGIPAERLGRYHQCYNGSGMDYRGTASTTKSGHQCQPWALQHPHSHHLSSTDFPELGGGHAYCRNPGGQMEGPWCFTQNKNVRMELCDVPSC
For the molecule B1, the equilibrium dissociation constant (Kd) was 52.5 nM, the koff is 0.00544 s⁻¹ and the kon stood at 104000 M⁻¹ s⁻¹.

For the molecule B2, the dissociation rate constant (koff) stood at 0.0178 s⁻¹ and the kon was found to be 3.34e+06 M⁻¹ s⁻¹.

In the case of B3, the dissociation rate constant (koff) amounted to 0.0467 s⁻¹ and the kon came to 328000 M⁻¹ s⁻¹.

As for B4, the koff was found to be 0.0173 s⁻¹ and the kon was 49800 M⁻¹ s⁻¹.

With B5, the Kd was determined as 57.2 nM, the koff was determined as 0.00546 s⁻¹ and the kon turned out to be 95600 M⁻¹ s⁻¹.

As for B6, the koff amounted to 0.0132 s⁻¹ and the kon was found to be 83500 M⁻¹ s⁻¹.

Take B7: the Kd was determined as 2280 nM, the koff came out at 0.108 s⁻¹ and the kon came to 47300 M⁻¹ s⁻¹.

Take B8: the Kd turned out to be 43.3 nM, the koff turned out to be 0.00851 s⁻¹ and the kon stood at 197000 M⁻¹ s⁻¹.

On to B9, for which the off-rate constant (koff) turned out to be 0.00242 s⁻¹ and the kon turned out to be 29800 M⁻¹ s⁻¹.

For the molecule B10, the off-rate (koff) was 0.000286 s⁻¹ and the on-rate constant (kon) was 27100 M⁻¹ s⁻¹.

With B11, the Kd is 4150 nM, the off-rate (koff) stood at 0.154 s⁻¹ and the kon was determined as 37000 M⁻¹ s⁻¹.
